From patent publication CN112592405A (BIOSION BIO TECH NANJING CO LTD, dated 2021)

T1: 人BCMA-His抗原 (ACRO, Cat#BCA-H522y) (human, UniProt Q02223 1-54)
T1 construct: Bought recombinant protein; also called human BCMA-His; 人BCMA蛋白; not shown: His tag
T1 sequence (looked up): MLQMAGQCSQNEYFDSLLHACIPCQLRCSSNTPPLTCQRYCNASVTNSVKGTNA


Biological target: T1, 人BCMA-His抗原 (ACRO, Cat#BCA-H522y)
Assay: indirect ELISA, plate coated with human BCMA-His at 2 μg/ml, detection with HRP goat anti-human Fcγ

Binder	binding result
BCMA-VHH-2B11纳米抗体 (抗人BCMA纳米抗体, 含有Fc tag) (Fc fusion, Expressed in Expi293F cells and purified on Protein A/G. It was tested as VHH with an Fc tag, about 35 kDa on SDS-PAGE; also called anti-human BCMA nanobody; not shown: Fc tag) QVQLVESGGGLVQAGGSLRLSCAASGGTFNNDNVGWFRQAPGKEREFVAVISWRGDGTDYADSVKGRFTISRDYAKKMVYLQMNSLQPKDTAVYYCAVGDGSRWRGAYAYWGQGTRVTVSS	binds
BCMA Benchmark1 (antibody sequence of GSK2857916) (antibody, human IgG1, kappa, V domains shown, also called BCMA-BM1) VH: QVQLVQSGAEVKKPGSSVKVSCKASGGTFSNYWMHWVRQAPGQGLEWMGATYRGHSDTYYNQKFKGRVTITADKSTSTAYMELSSLRSEDTAVYYCARGAIYDGYDVLDNWGQGTLVTVSS VL: DIQMTQSPSSLSASVGDRVTITCSASQDISNYLNWYQQKPGKAPKLLIYYTSNLHSGVPSRFSGSGSGTDFTLTISSLQPEDFATYYCQQYRKLPWTFGQGTKLEIKR	binds
